Laboratory results reported in patent US20030161791A1, “Water-soluble polymer conjugates of retinoic acid” (priority 2001, published 2003).

Assays:
[1] = Recovery of ATRA and conjugate in plasma and lung tissue after intratracheal instillation in male rats; assay type: in vivo, Sprague Dawley Rats
Description: The following study in rats was conducted to determine plasma and lung tissue concentrations of non-PEGylated all-trans retinoic acid (ATRA control) versus a PEGylated all-trans retinoic acid, mPEG (5 kD)ATRA Ester Conjugate, after intratracheal instillation to male rats.
Animals: Hilltop Lab Animals Inc (P.O. Box 183, Scottdale, Pa. 15683) supplied pre-cannulated jugular vein catheter [JVC]) Sprague Dawley Rats (350-375 grams). The test system included 2 male rats randomly chosen for each of the 6 test groups.
ATRA and PEG-ATRA Samples: Non-PEGylated All-Trans Retinoic Acid was supplied as a powder containing 50% ATRA by weight (Control Article). The powder was stored at −20° C. and protected from light. Methoxy PEG (5 kD) ATRA ester conjugate (Test Article) was provided as a powder containing 5% ATRA by weight which was stored at −20° C. and protected from light.
ATRA Stock Solution/Control (2.0 mg/ml Stock): 3.0 mL of PBS was added to 6.0 mg of the ATRA powder. This solution was dosed as a suspension to the rats after sonication and vortexing.
Methoxy PEG (5 kD) ATRA ester conjugate (20.0 mg/mL Stock): 3.0 mL of PBS was added to 60.0 mg of the methoxy PEG (5 kD) ATRA ester conjugate powder.
Intratracheal Instillation: Administration of the control and test articles was achieved by intratracheal instillation under yellow lighting. The rats were lightly anesthetized using inhaled 3.0-5.0% isoflurane mixed with oxygen in a plexiglass anesthesia chamber. The dose was administered by inserting a gavage needle fitted with a 1 mL syringe into the mouth of the rat down the trachea to just above the carina. The dose was administered into the lungs utilizing this method, and then the gavage needle was removed. The animal was placed back in its cage and allowed to recover from the anesthesia on its own after the dosing procedure.
Rats were dosed IT with 354 μg (1.2 μmole) of RA or […] (1 μmole) ATRA equivalent of mPEG5K-ATRA.
Blood Collection: Predose blood samples of approximately 3.0 ml were collected from the jugular vein catheter into heparinized plasma tubes. At the designated sacrifice time for each animal a surgical plane of anesthesia was induced by using inhaled 3.0-5.0% isofluorane mixed with oxygen. […]
ATRA and PEG-ATRA were extracted from whole rat lung by first weighing and transferring the rat lung to an amber vial and cutting the lung into small pieces. […] The sample was then analyzed by HPLC.
Sample Analysis: Plasma and lung tissue samples were analyzed for all-trans retinoic acid concentrations by reverse-phase high performance liquid chromatography (HPLC) procedures for the lung tissue and by a liquid chromatography tandem mass spectrophotometer (LC-MS-MS) technique for the plasma samples. […]

[2] = Stability (degradation) of PEG-retinoid compositions versus unmodified parent retinoid; assay type: physicochemical; details: without free radical scavenger
Description: Additionally, a composition in accordance with the invention will preferably contain a free radical scavenger such as butylatedhydroxytoluene (BHT), ascorbic acid (vitamin C), or alpha tocopherol […]. […] Incorporation of a free radical scavenger in the composition was effective to substantially reduce or effectively eliminate free-radical induced degradation of the conjugate.

[3] = Hydrolysis rate of PEG-ATRA ester conjugate in phosphate buffer; assay type: physicochemical; details: phosphate buffer 0.1M, pH 7.0, 0.5 wt %, pseudo-first-order kinetics
Description: The rate of hydrolysis in buffer of an exemplary PEG-ATRA conjugate in accordance with the invention was determined at two different temperatures, room temperature and body temperature.
MPEG 5 kDa ATRA (see Example 1) was dissolved in phosphate buffer (0.1M, pH 7.0) at a concentration of 0.5 wt % at temperatures of 23° C. and 37° C. At timed intervals, aliquots were removed for analysis by analytical reverse phase HPLC. The hydrolysis half-lives were obtained using pseudo-first-order kinetics. […] Thus, these conjugates can be characterized as water-soluble prodrugs forms of the retinoid.

concentration at 1 h ([1]; male, Sprague Dawley, other: intratracheal instillation, 354 μg, rat plasma, one-hour timepoint, LC-MS-MS, read-out: plasma retinoic acid (ATRA) concentration) [ng/mL]	retention in the lung compared with pegylated / unmodified counterpart ([1]; rat, lung tissue (FIG. 3))	Compound	stability of the composition relative to compositions of the unmodified parent retinoid [2]	plasma retinoic acid (ATRA) concentration ([1]; rat plasma, one-hour timepoint, LC-MS-MS)	retained in the lung ([1]; rat, for at least up to 2 hours post administration, HPLC of lung tissue)	half-life (t 1/2) of the hydrolysis ([3]; 23° C.)	half-life (t 1/2) of the hydrolysis ([3]; 37° C.)
~145	to a lesser degree	CC1=C(/C=C/C(C)=C/C=C/C(C)=C/C(=O)O)C(C)(C)CCC1 [ATRA, all trans retinoic acid, reference compound]					
		mPEG (5 kDa) ATRA Ester Conjugate [Example 1]	more prone to degradation	approximately 65 ng/ml	greater than 70 % of the dose	about 3500 hours	about 877 hours
